Results on eight molecules are retold here after US20250129169A1 (Stanford University, published 2025).

The target in one experiment is T1, human IFNAR2 ECD (human, UniProt P48551 27-243).
T1 construct: extracellular domain; Immobilized for SPR under the same conditions as for the IL-2 specific VHHs
T1 sequence (looked up): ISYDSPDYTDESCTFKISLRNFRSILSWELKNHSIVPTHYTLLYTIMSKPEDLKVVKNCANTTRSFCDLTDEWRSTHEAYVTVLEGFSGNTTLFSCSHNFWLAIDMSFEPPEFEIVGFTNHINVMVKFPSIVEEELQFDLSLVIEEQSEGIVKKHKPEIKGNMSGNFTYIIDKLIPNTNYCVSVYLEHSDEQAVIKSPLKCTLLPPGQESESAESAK
Put plainly: SPR; human IFNAR2 ECD immobilized, VHH as analyte; binding constants from kinetic fits. The method, then:
FIGS. 8A-8D depict signaling kinetics and gene expression driven by Type I Interferon surrogate ligands. (A) SPR sensorgrams displaying dose-dependent binding of IFNAR2 VHHs to immobilized human IFNAR2 ECD. SPR experiments were performed using the same conditions as for IL-2 specific VHHs. Binding constants were determined from kinetic fitting and summarized in (B). (C) qRT-PCR analysis of mRNA level of indicated genes in human primary bronchial/tracheal epithelial cells treated with 10 nM surrogate ligands or IFNω for 8 hr. (D) qRT-PCR analysis of mRNA level of indicated genes in PBMCs treated with 10 nM surrogate ligands or IFNω for 8 hr.

The target of experiment [1] is IL-2Rβ/γc receptor heterodimer on cells (human) (UniProt P14784). Put plainly: cell-based or functional assay.
Chain of IL-2Rβ/γc receptor heterodimer on cells (human) (P31785 23-369, one chain of several): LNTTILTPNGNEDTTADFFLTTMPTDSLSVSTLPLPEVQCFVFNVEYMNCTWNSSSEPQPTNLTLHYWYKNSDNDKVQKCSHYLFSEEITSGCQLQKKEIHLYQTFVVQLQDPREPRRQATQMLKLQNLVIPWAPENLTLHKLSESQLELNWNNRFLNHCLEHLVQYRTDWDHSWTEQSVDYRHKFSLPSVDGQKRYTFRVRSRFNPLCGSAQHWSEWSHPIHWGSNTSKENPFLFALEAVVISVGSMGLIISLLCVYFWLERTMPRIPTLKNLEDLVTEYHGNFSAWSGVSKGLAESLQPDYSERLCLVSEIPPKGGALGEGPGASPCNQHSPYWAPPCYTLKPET

B1: IFNAR2-VHH1 (VHH)
VHH: QVQLQESGGGSVQPGGSLRLSCAASGFTFSNYIMSWVRQAPGKGLEWVSAISGGGNTYYTDSVKGRFTISRDNAKNTLYLQLNSLKTEDTAMYYCAQNWWVAGRSPNPPGQGTQVTVSS
notes: Member of the group m12 (IFNAR2 VHHs); also called VHH1 (IFNAR2 VHH)
Broadly, the Kd is the concentration at which binding is half-saturated. In the experiment with human IFNAR2 ECD, B1 displayed a Kd of 0.31 nM.

B2: MY173-F (bispecific antibody, not shown: small tags and cut ends)
chain: QVQLQESGGGSVQAGGSLRLSCAASSYTISSVCMGWFRQAPGKEREGVAGIAPDGSTGYGDSVKGRFTISKDNAKNTLYLQMNSLKPEDTAMYYCAAASPGRCFLPRTALEPALYYNWGQGTQVTVSSSFQVQLQESGGGSVQAGGSLRLSCAASGYTYRDYYMGWFRQAPGREREGVASIYTRGSREGSTRYSSSVEGRFTITLDTAKNTLYLQMNSLKPEDTAMYYCAADDRTWLPRVQLGGPRENEYNYWGQGTQVTVSS
In experiment [1], B2 gave a pS6 activity in CD8+ T and NK cells, relative to IL-2 of 50%; a pSTAT5 activity in CD8+ T and NK cells, relative to IL-2 of 70 to 100%.

B3: IFNAR2-VHH10 (VHH)
VHH: QVQLQESGGGLVQPGGSLRLSCAASGFTFSNHIMSWVRQAPGKGLEWVSAINSGGGSTYYRDSVKGRFTISRDNAKNTLYLQLNSLKTEDTAMYYCAKDWWRYGSDKPPGQGTQVTVSS
notes: Member of the group m12 (IFNAR2 VHHs); also called VHH10 (IFNAR2 VHH)
Molecule B3 returned an equilibrium dissociation constant (Kd) with human IFNAR2 ECD of 0.33 nM.

B4: IFNAR2-VHH5 (VHH)
VHH: QVQLQESGGGLVQPGGSLTLSCAASGFTFRNHIMSWVRQAPGKGLEWVSAISSGGGNTYYADSVKGRFTISRDNAKSTLYLQLNSLKTEDTAMYYCTKDWARPPYSDFLAPQAQGTQVTVSS
notes: Member of the group m12 (IFNAR2 VHHs); also called VHH5 (IFNAR2 VHH)
As for B4, the Kd with human IFNAR2 ECD came to 0.23 nM.

B5: IFNAR2-VHH8 (VHH)
VHH: QVQLQESGGGSVQAGGSLRLSCAASGFYGTYSMGWFRQAPGKEREGVAHIESDGSTRYADSMKGRFTVSKDNAKKILYLQMNSLKPEDTAVYYCAADPRPYFRTWYERARYGGQGTQVTVSS
notes: Member of the group m12 (IFNAR2 VHHs); also called VHH8 (IFNAR2 VHH)
Take B5: the affinity with human IFNAR2 ECD, expressed as Kd, was 0.54 nM.

B6: IFNAR2-VHH2 (VHH)
VHH: QVQLQESGGGLVQPGGSLRLSCAASGFTFSDYIMTWVRQAPGKGLEWVSSINNGGRSTYYADSVKGRFTISRDNAKNTLYLQLNSLKIEDTAMYYCARDVTCWGARTGCRVSGGTQVTVSS
notes: Member of the group m12 (IFNAR2 VHHs); also called VHH2 (IFNAR2 VHH)
For B6, the affinity with human IFNAR2 ECD, expressed as Kd, was 0.78 nM.

B7: MY193-R (bispecific antibody, not shown: small tags and cut ends)
chain: QVQLQESGPGLVKPSETLSLTCTVSGGSISSSSYYWGWIRQPPGKGLEWIGSIYYSGSTYYNPSLKSRVTISVDTSKNQFSLKLSSVTAADTAVYYCAGDILTGYALDYWGQGTLVTVSSGGGGSGGGGSGGGGSSYELTQPPSMSVSPGQTARITCSGDALPKQFAFWYQQKPGQAPVLVIYKDTERPSGIPERFSGSSSGTTVTLTITGVQAEDEADYYCQSPDSSGTVEVFGGGTKLTVLGGGGTSASQVQLQESGGGSVQAGGSLRLSCTASGFTFDDEDMGWYRQAPGNECELVSSIGSLGRRYYADSVKDRFAISQDNAKNTVYLQMNSLKPEDTAVYYCAATKGGSWLDSILASCQGAFGYWGQGTQVTVSS
With B7, in experiment [1], the pSTAT1/3 activity in NK cells, relative to hIL-2 came out at 3%; the pSTAT1 or pSTAT3 activity in CD8+ T cells, relative to hIL-2 was 25%; the pSTAT5 activity in CD8+ T cells, relative to hIL-2 amounted to 90%; the pSTAT5 activity in NK cells, relative to hIL-2 amounted to 45%.

B8: IFNAR2-VHH3 (VHH)
VHH: QVQLQESGGGLVQPGGSLRLSCAASEFTFSEYSMKWVRQPPGKGLEWVSTISPSGGTTRYAESVKGRFTISRDNAKNTLYLQLNSLKTEDTAMYYCSVADWSVTQRRGQGTQVTVSS
notes: Member of the group m12 (IFNAR2 VHHs); also called VHH3 (IFNAR2 VHH)
Molecule B8 registered a Kd with human IFNAR2 ECD of 0.21 nM.
